Legend:
rat C3b (rat) [1] = biological target: rat C3b (rat)
rat C3b (rat) [2] = assay: SPR; Biacore 3000; rat C3b (1000RU) covalently coupled to the chip through its internal thioester after deposition by a convertase on a nidus of human C3b (50RU); different concentrations of the sCrry proteins flowed over; KD from steady state analysis

Kd (rat C3b (rat) [2]) [µM] | Substance | IH50 of inhibition of AP-mediated haemolysis of guinea pig erythrocytes by rat serum, in terms of Crry molarity (rat C3b (rat) [1]) [nM]
– | rCrry-Ig (Fc fusion) | 168
5.1 | soluble recombinant form of rat Crry containing the four N-terminal SCRs (domain or fragment) | –

Source: PMC2572221
